Data: paper PMC4427845, “Redesigning Protein Cavities as a Strategy for Increasing Affinity in Protein-Protein Interaction: Interferon-γ Receptor 1 as a Model” (BioMed Research International, 2015)

How the values were obtained:
Test in all cases: SPR; His-tagged receptor variants immobilised on a Ni2+-activated HTG sensor chip (ProteOn); IFNγSC 0.1-9 nM flowed over, 90 s association, 10 min dissociation, 100 μL/min; PBST (PBS pH 7.4, 0.005% Tween 20); doubly referenced (interspots and His-tagged FrpD channel); 1:1 Langmuir with drift model
Details in all cases: both partners purified
[1] = molecular target: T1, IFNγR1 G225Y variant (residues 18-245) (human, UniProt P15260 18-245, G225Y)
T1 construct: interferon-γ receptor 1 (IFNγR1), human, extracellular domain, residues 18-245 of UniProt P15260; No primers are printed for this mutation; the methods say one protocol was followed for all proteins of the study; not shown: His tag, C-terminal, kept
T1 sequence (looked up): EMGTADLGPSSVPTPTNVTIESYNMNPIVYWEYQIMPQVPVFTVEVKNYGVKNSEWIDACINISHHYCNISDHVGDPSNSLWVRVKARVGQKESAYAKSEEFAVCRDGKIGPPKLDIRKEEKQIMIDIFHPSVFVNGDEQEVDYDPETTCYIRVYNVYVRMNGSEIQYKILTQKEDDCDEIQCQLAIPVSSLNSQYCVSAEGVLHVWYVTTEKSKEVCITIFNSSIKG

[2] = molecular target: T2, IFNγR1 N96W + G225Y double mutant (residues 18-245) (human, UniProt P15260 18-245, N96W | G225Y)
T2 construct: interferon-γ receptor 1 (IFNγR1), human, extracellular domain, residues 18-245 of UniProt P15260; not shown: His tag, C-terminal, kept
T2 sequence (looked up): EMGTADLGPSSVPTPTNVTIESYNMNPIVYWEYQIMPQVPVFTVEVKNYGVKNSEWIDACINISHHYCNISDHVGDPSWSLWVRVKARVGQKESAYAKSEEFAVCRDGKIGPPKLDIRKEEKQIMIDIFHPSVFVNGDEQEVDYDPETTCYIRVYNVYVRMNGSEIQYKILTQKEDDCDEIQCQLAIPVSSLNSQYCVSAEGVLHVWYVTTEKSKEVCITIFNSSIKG

[3] = molecular target: T3, IFNγR1 N96W + V35L variant (residues 18-245) (human, UniProt P15260 18-245, V35L | N96W)
T3 construct: interferon-γ receptor 1 (IFNγR1), human, extracellular domain, residues 18-245 of UniProt P15260; not shown: His tag, C-terminal, kept
T3 sequence (looked up): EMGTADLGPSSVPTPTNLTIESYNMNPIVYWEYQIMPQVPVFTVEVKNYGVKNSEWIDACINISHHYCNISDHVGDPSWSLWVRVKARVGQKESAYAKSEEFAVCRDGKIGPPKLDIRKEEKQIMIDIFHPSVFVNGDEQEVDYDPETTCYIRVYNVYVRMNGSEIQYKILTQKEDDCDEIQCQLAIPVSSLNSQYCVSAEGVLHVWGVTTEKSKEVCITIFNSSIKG

B1: Recombinant interferon gamma in so-called single chain form (IFNγSC) (ligand)
chain: MQDPYVKEAENLKKYFNAGHSDVADNGTLFLGILKNWKEESDRKIMQSQIVSFYFKLFKNFKDDQSIQKSVETIKEDMNVKFFNSNKKKRDDFEKLTNYSVTDLNVQRKAIDELIQVMAEFSTEEQQEGPYVKEAENLKKYFNAGHSDVADNGTLFLGILKNWKEESDRKIMQSQIVSFYFKLFKNFKDDQSIQKSVETIKEDMNVKFFNSNKKKRDDFEKLTNYSVTDLNVQRKAIHELIQVMAELSPAAKTGKRKRSQMLFRG
ratio of Kd values against WT [1]: 0.4 | ratio of Kd values against WT [2]: 3.1 | fold of affinity against WT [3]: 7 fold
